Laboratory results: patent publication US20260286413A1, “HYALURONAN SYNTHESIS, SECRETION AND LENGTH CONTROL” (UNIVERSITY OF VIRGINIA, priority 2023, published 2026)

How the values were obtained:
[1] = tested on: Hyaluronic acid synthesis; conditions: cited from earlier work
[2] = tested on: HAS isoforms; conditions: cited from earlier work
[3] = target: T1, X1HAS1 (Xenopus laevis, UniProt P13563); assay: Substrate turnover rate quantification (UDP release, enzyme-coupled assay); format: biochemical
T1 construct: dodeca-histidine (His12) (N); made in house; host or cells: Spodoptera frugiperda Sf9 cells (baculovirus)
T1 sequence (P13563 1-588): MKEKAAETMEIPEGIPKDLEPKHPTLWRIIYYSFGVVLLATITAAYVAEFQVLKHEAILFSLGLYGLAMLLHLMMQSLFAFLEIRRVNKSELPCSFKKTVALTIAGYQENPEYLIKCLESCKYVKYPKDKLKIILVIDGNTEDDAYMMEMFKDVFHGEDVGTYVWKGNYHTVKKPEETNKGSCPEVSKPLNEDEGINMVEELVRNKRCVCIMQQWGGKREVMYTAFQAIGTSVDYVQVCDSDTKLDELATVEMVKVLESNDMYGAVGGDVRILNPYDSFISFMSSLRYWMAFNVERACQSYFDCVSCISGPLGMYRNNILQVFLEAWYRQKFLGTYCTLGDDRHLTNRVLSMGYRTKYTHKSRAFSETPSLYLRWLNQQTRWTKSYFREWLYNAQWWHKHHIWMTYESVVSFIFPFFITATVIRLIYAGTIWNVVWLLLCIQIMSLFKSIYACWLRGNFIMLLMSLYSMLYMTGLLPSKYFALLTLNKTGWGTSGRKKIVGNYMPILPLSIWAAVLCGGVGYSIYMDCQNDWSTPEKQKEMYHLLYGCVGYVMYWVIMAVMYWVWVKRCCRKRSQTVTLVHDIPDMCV

[4] = target: T1, X1HAS1; assay: Electrophoretic HA size determination (agarose gel, Stains-all) of in vitro synthesized HA; format: biochemical
Summary of the method: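 Hyaluronan made in vitro by X1HAS1 was size-analyzed by combining reactions with SDS-PAGE loading dye and running them on a 1% agarose gel. The gel was equilibrated in 50% ethanol for 1.5 h, stained overnight in the dark with 0.05% Stains-all, then destained in 20% ethanol. Sizes were judged against Streptococcus equi HA standards and HA ladders, with hyaluronidase-digested controls.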

For `Cc1cc(=O)oc2cc(O)ccc12` [4-methylumbelliferone], the “effect on hyaluronic acid synthesis” value [1] is listed as “inhibited”.

B1: HAS1: human HA synthase isoform 1 (protein, UniProt Q92839 1-578, looked up)
Hyaluronan synthase 1: MRQQDAPKPTPAACRCSGLARRVLTIAFALLILGLMTWAYAAGVPLASDRYGLLAFGLYGAFLSAHLVAQSLFAYLEHRRVAAAARGPLDAATARSVALTISAYQEDPAYLRQCLASARALLYPRARLRVLMVVDGNRAEDLYMVDMFREVFADEDPATYVWDGNYHQPWEPAAAGAVGAGAYREVEAEDPGRLAVEALVRTRRCVCVAQRWGGKREVMYTAFKALGDSVDYVQVCDSDTRLDPMALLELVRVLDEDPRVGAVGGDVRILNPLDSWVSFLSSLRYWVAFNVERACQSYFHCVSCISGPLGLYRNNLLQQFLEAWYNQKFLGTHCTFGDDRHLTNRMLSMGYATKYTSRSRCYSETPSSFLRWLSQQTRWSKSYFREWLYNALWWHRHHAWMTYEAVVSGLFPFFVAATVLRLFYAGRPWALLWVLLCVQGVALAKAAFAAWLRGCLRMVLLSLYAPLYMCGLLPAKFLALVTMNQSGWGTSGRRKLAANYVPLLPLALWALLLLGGLVRSVAHEARADWSGPSRAAEAYHLAAGAGAYVGYWVAMLTLYWVGVRRLCRRRTGGYRVQV
For B1, the “HA polymer size” value [2] is given as “several megadaltons”.

B2: HAS2: human HA synthase isoform 2 (protein, UniProt Q92819 1-552, looked up)
Hyaluronan synthase 2: MHCERFLCILRIIGTTLFGVSLLLGITAAYIVGYQFIQTDNYYFSFGLYGAFLASHLIIQSLFAFLEHRKMKKSLETPIKLNKTVALCIAAYQEDPDYLRKCLQSVKRLTYPGIKVVMVIDGNSEDDLYMMDIFSEVMGRDKSATYIWKNNFHEKGPGETDESHKESSQHVTQLVLSNKSICIMQKWGGKREVMYTAFRALGRSVDYVQVCDSDTMLDPASSVEMVKVLEEDPMVGGVGGDVQILNKYDSWISFLSSVRYWMAFNIERACQSYFGCVQCISGPLGMYRNSLLHEFVEDWYNQEFMGNQCSFGDDRHLTNRVLSLGYATKYTARSKCLTETPIEYLRWLNQQTRWSKSYFREWLYNAMWFHKHHLWMTYEAIITGFFPFFLIATVIQLFYRGKIWNILLFLLTVQLVGLIKSSFASCLRGNIVMVFMSLYSVLYMSSLLPAKMFAIATINKAGWGTSGRKTIVVNFIGLIPVSVWFTILLGGVIFTIYKESKRPFSESKQTVLIVGTLLYACYWVMLLTLYVVLINKCGRRKKGQQYDMVLDV
In the case of B2, the “HA polymer size” value [2] is listed as “several megadaltons”.

B3: X1HAS1: Xenopus laevis HA synthase isoform 1, wild type (Uniprot P13563, SEQ ID NO: 9) (protein, UniProt P13563 1-588, looked up)
Hyaluronan synthase 1: MKEKAAETMEIPEGIPKDLEPKHPTLWRIIYYSFGVVLLATITAAYVAEFQVLKHEAILFSLGLYGLAMLLHLMMQSLFAFLEIRRVNKSELPCSFKKTVALTIAGYQENPEYLIKCLESCKYVKYPKDKLKIILVIDGNTEDDAYMMEMFKDVFHGEDVGTYVWKGNYHTVKKPEETNKGSCPEVSKPLNEDEGINMVEELVRNKRCVCIMQQWGGKREVMYTAFQAIGTSVDYVQVCDSDTKLDELATVEMVKVLESNDMYGAVGGDVRILNPYDSFISFMSSLRYWMAFNVERACQSYFDCVSCISGPLGMYRNNILQVFLEAWYRQKFLGTYCTLGDDRHLTNRVLSMGYRTKYTHKSRAFSETPSLYLRWLNQQTRWTKSYFREWLYNAQWWHKHHIWMTYESVVSFIFPFFITATVIRLIYAGTIWNVVWLLLCIQIMSLFKSIYACWLRGNFIMLLMSLYSMLYMTGLLPSKYFALLTLNKTGWGTSGRKKIVGNYMPILPLSIWAAVLCGGVGYSIYMDCQNDWSTPEKQKEMYHLLYGCVGYVMYWVIMAVMYWVWVKRCCRKRSQTVTLVHDIPDMCV
In the case of B3, the “activity reduction when manganese is used instead of magnesium as cofactor” value ([3]; Mn2+ instead of Mg2+) is reported as “about 30%”, the overall catalytic rate ([3]; UDP release) is reported as “approximately 30 substrate turnovers per minute” and the “HA production with Mn2+” value ([4]; agarose gel assay, Mn2+ versus Mg2+) is reported as “reduces HA production slightly”. The “catalytic rate suggested by electrophoretic analysis versus rate by UDP quantification” value ([4]; based on ~1.6 MDa produced within 90 min) was “about 2 times”, the “size of HA polymers with sustained high substrate” value ([4]; both substrates (2.5 mM) supplemented at 2, 4, 6 h, UDP converted to UTP) was greater than 1.6 MDa and the “size of HA polymers synthesized at completion” value ([4]; in vitro synthesis, relative to HA marker) was greater than 1.6 MDa. For the same molecule, the HA product length ([4]; produced within 90 min) was ~ 1.6 MDa, the “change of HA size with one substrate limiting” value ([4]; substrate replenishing, UDP-GlcNAc at 0.1-1 mM) was “no increase in HA size” and the “maximum HA extension” value ([4]; without UDP removal, 2.5 mM of both substrates) was roughly 1.6 MDa.
